Experimental data as given in the supplement of paper PMC7877785.
± gives the uncertainty stated by the source.

Experiment: self-splicing fitness, log relative to wild type (ln ratio); higher = more splicing; Tetrahymena group I intron in knt gene, E. coli kanamycin selection, DiMSum; sequences stand for … in CUCUCU…GGAGGGAAAAGUUAUCAGGCAUGCACCUGGUAGCUAGUCUUUAAACCAAUAGAUUGCAUCGGUUUAAAAGGCAAGACCGUCAAAUUGCGGGAAAGGGGUCAACAGCCGUUCAGUACCAAGUCUCAGGGGAAACUUUGAGAUGGCCUUGCAAAGGGUAUGGUAAUAAGCUGACGGACAUGGUCCUAACCACGCAGCCAAGUCCUAAGUCAACAGAUCUUCUGUUGAUAUGGAUGCAGUUCACAGACUAAAUGUCGGUCGGGGAAGAUGUAUUCUUCUCAUAAGAUAUAGUCGGACCUCUCCUUAAUGGGAGCUAGCGGAUGAAGUGAUGCAACACUGGAGCCGCUGGGAACUAAUUUGUAUGCGAAAGUAUAUUGAUUAGUUUUGGAGUACUCGUGGUCG
How it was run: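 Six replicate transformations of E. coli BL21(DE3) with a pET-22b(+) library were grown overnight at 37°C or 30°C. The library randomised all eight P1ex-region intron nucleotides, the intron lying in the knt kanamycin-resistance gene, and plates were LB agar with or without 25 μg/mL kanamycin plus 100 μg/mL carbenicillin, 50 μM IPTG and 0.2% rhamnose. Pooled colonies were amplicon-sequenced on an Illumina HiSeq 2500, and fitness is the DiMSum error-weighted combination of wild-type-normalised replicate fold changes, kanamycin versus none.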

Row | Sequence | self-splicing fitness (ln) (30 °C) | self-splicing fitness (ln) (37 °C)
1 | ACGUAGCAAUAUUACGACGU | -2.97 ± 0.15 | -2.31 ± 0.19
2 | CCGCAGCAAUAUUACGCAUU | -3.28 ± 0.2 | -3.44 ± 0.19
3 | AGUCAGCAAUAUUACGUCAG | -2.65 ± 0.16 | -1.86 ± 0.15
4 | UAGGAGCAAUAUUACGACCG | 0.0998 ± 0.18 | -0.0128 ± 0.23
5 | UAUAAGCAAUAUUACGUCAU | -3.37 ± 0.22 | -0.173 ± 0.15
6 | CUCGAGCAAUAUUACGUCUC | -2.55 ± 0.23 | -2.5 ± 0.39
7 | CACUAGCAAUAUUACGCAAG | -2.39 ± 0.098 | -1.43 ± 0.12
8 | ACUGAGCAAUAUUACGUCAC | -3.38 ± 0.17 | -2.75 ± 0.21
9 | GAAUAGCAAUAUUACGCAUA | -2.62 ± 0.29 | -1.08 ± 0.17
10 | UACCAGCAAUAUUACGCGGC | -3.78 ± 0.13 | -3.27 ± 0.18
11 | AUGUAGCAAUAUUACGGAUG | -3.13 ± 0.31 | -2.82 ± 0.41
12 | ACUCAGCAAUAUUACGUGCU | -2.27 ± 0.082 | -2.53 ± 0.11
13 | UUCUAGCAAUAUUACGUCUA | -3.64 ± 0.26 | -2.2 ± 0.17
14 | UGCAAGCAAUAUUACGCGUA | -1.45 ± 0.18 | -1.57 ± 0.17
15 | CUUGAGCAAUAUUACGGGAC | -3.63 ± 0.29 | -2.56 ± 0.3
16 | UUUUAGCAAUAUUACGACCG | 1.81 ± 0.28 | -1.19 ± 0.4
17 | GGGAAGCAAUAUUACGGGAU |  | -0.0224 ± 0.27
18 | UGGCAGCAAUAUUACGAGGG | -3.44 ± 0.23 | -2.73 ± 0.25
19 | AAGAAGCAAUAUUACGACUG | -0.231 ± 0.089 | 0.323 ± 0.16

Row | Sequence | self-splicing fitness (ln) (30 °C) | self-splicing fitness (ln) (37 °C)
20 | GCUGAGCAAUAUUACGUCUA | -2.85 ± 0.22 | -1.06 ± 0.14
21 | AAUUAGCAAUAUUACGGGAC |  | -0.571 ± 0.23
22 | GCUAAGCAAUAUUACGCACC | -0.869 ± 0.11 | 0.0219 ± 0.14
23 | CGAGAGCAAUAUUACGUUCA | -2.34 ± 0.21 | -2.69 ± 0.31
24 | CUUCAGCAAUAUUACGACCG | 0.185 ± 0.083 | -0.454 ± 0.12
25 | ACGGAGCAAUAUUACGUAUC | -2.75 ± 0.2 | -2.52 ± 0.29
26 | ACAUAGCAAUAUUACGUCAG | -2.66 ± 0.13 | -3.18 ± 0.18
27 | CUUCAGCAAUAUUACGCUUG | -2.94 ± 0.14 | -1.22 ± 0.12
28 | CGUGAGCAAUAUUACGUCUU | -2.26 ± 0.27 | 
29 | CUUCAGCAAUAUUACGUUUA | -3.96 ± 0.3 | -2.49 ± 0.23
30 | UACUAGCAAUAUUACGUAGC | -2.83 ± 0.17 | -2.19 ± 0.27
31 | CACAAGCAAUAUUACGCAAA | -3.29 ± 0.23 | -2.46 ± 0.28
32 | CAAAAGCAAUAUUACGUCGG | -0.932 ± 0.073 | -0.25 ± 0.1
33 | GUGUAGCAAUAUUACGCGAC | -1.33 ± 0.45 | -1.02 ± 0.27
34 | GGACAGCAAUAUUACGAGAG | -3.81 ± 0.18 | -2.09 ± 0.11
35 | UCUUAGCAAUAUUACGAGAG | -2.35 ± 0.26 | -0.861 ± 0.16
36 | UACGAGCAAUAUUACGAGGA | -3.51 ± 0.26 | -2.48 ± 0.22
37 | GUACAGCAAUAUUACGAACU | -0.664 ± 0.15 | -1.24 ± 0.2
38 | GUGUAGCAAUAUUACGCUGC | -3.26 ± 0.27 | -1.08 ± 0.23
